Measurements published in patent publication US20070065439A1.

Target: type I IL-1 receptor (IL-1R) (UniProt P14778)
Assay: cell-based or functional assay

Chain of type I IL-1 receptor (IL-1R) (P14778 18-569 limits assumed): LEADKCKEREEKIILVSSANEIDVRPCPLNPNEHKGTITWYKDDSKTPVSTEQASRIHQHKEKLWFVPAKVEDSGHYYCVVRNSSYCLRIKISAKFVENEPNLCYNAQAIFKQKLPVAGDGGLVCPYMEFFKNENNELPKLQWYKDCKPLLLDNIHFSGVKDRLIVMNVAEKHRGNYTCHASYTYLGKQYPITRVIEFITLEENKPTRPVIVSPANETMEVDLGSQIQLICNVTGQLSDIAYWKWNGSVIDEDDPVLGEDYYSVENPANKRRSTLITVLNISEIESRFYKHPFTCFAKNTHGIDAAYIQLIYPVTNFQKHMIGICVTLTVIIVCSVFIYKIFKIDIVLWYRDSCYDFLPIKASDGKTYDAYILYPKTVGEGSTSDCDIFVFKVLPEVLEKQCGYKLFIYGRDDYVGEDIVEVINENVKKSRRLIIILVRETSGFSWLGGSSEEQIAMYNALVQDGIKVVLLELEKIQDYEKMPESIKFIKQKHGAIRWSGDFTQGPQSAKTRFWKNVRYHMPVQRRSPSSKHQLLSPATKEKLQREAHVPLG

EC50, inhibition of IL-1β-induced IL-6 production in MRC-5 cells: 0.077 nM
EC50, inhibition of IL-1β-induced IL-8 production in human whole blood: 0.984 nM
Substance: anakinra (KINERET) (from UniProt P18510 26-177) (ligand)
